Series [1] deals with T1, Sam68 N-terminal region (UniProt Q07666 1-96). The experiment in a line: NMR titration; second estimate (probably Arg side chains); NMR: HSQC at 4 C (NMR buffer not given in material; purification in 50 mM sodium phosphate, 150 mM NaCl, pH 7.6 N-term / pH 7.0 C-term). Pull-down: 20 mM HEPES. The settings on record: protein: recombinant; tags: His-tag removed by TEV.
For series [2], the target named is T2, Sam68 C-terminal region (UniProt Q07666 267-368). The description is as above. Conditions: protein: recombinant; tags: GST removed by PreScission.
T2 sequence (Q07666 267-368): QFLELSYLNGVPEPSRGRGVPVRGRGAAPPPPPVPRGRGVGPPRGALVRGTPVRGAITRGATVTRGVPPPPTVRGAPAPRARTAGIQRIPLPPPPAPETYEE
The target of series [3] is T1, Sam68 N-terminal region. The experiment in a line: NMR titration; one of two estimates (backbone or Arg side chains; panel assignment not clear, error suggests eight backbone resonances); text range 1-10 uM; NMR: HSQC at 4 C (NMR buffer not given in material; purification in 50 mM sodium phosphate, 150 mM NaCl, pH 7.6 N-term / pH 7.0 C-term). Pull-down: 20 mM HEPES. The settings on record: protein: recombinant; tags: His-tag removed by TEV.

Series [4] concerns the target T2, Sam68 C-terminal region. The experiment in a line: NMR titration; one of two estimates (backbone or Arg side chains; panel assignment not clear, error suggests eight backbone resonances); text range 30-70 uM; NMR: HSQC at 4 C (NMR buffer not given in material; purification in 50 mM sodium phosphate, 150 mM NaCl, pH 7.6 N-term / pH 7.0 C-term). Pull-down: 20 mM HEPES. The settings on record: protein: recombinant; tags: GST removed by PreScission.

T1 sequence (Q07666 1-96): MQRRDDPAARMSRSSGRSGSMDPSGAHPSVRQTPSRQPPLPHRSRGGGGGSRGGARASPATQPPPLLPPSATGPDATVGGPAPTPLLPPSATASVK

Consider CUGGGUGACACACUAGCUAUAGCAUUAAAAGACCGAGCAAGU (ssRNA) [G8.5 RNA], for which the Kd (usually the equilibrium constant for the complex coming apart) in the series with Sam68 N-terminal region [1] was 12 µM; in the series with Sam68 C-terminal region [2] it was 68 µM; in the series with Sam68 N-terminal region [3], 3.5 ± 1.2 µM; with Sam68 C-terminal region [4], 32 ± 5 µM.

Source of the values: publication PMC9825155, “Cdk1-mediated threonine phosphorylation of Sam68 modulates its RNA binding, alternative splicing activity and cellular functions”.
